Experimental data taken from patent publication US20150246949A1, “Desmoglein 2 (DSG2) Binding Proteins and Uses Therefor” (UNIVERSITY OF WASHINGTON THROUGH ITS CENTER FOR …, priority 2012, published 2015).

Experiments:
[1] = biological target: T1, human DSG2 on cells (HeLa cells; polarized T84 cells) (human, UniProt Q14126 50-1118); assay: cell-based or functional assay
T1 sequence: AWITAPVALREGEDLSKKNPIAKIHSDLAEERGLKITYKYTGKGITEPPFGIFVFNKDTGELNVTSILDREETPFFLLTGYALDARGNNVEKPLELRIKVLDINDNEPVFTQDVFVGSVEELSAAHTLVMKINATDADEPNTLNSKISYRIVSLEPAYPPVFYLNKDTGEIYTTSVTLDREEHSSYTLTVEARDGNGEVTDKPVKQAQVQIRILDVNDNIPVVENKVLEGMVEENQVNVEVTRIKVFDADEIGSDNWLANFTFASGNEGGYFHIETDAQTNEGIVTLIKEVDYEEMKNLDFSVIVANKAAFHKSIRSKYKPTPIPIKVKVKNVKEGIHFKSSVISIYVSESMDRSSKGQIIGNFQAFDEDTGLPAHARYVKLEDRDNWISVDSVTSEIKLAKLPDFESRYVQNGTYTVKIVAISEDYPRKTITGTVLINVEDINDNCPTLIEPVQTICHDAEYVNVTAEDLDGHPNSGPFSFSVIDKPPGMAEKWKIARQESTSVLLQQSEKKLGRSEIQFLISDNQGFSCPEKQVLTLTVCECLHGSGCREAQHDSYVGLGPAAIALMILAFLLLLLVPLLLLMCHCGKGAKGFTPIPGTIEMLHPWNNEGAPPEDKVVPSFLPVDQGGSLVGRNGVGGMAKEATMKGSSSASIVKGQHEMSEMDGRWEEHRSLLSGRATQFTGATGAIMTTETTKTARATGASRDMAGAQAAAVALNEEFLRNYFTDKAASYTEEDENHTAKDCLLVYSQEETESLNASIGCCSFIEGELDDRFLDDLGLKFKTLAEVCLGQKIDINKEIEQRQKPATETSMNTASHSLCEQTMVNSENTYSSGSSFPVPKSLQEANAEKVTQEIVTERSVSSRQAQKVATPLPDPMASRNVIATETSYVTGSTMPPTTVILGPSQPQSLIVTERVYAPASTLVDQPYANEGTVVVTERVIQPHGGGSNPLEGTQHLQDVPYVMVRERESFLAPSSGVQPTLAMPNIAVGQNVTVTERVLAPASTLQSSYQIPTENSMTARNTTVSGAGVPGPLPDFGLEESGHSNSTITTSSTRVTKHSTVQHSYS

[2] = biological target: T1, human DSG2 on cells (HeLa cells; …); assay: cell-based or functional assay; remark: listed apart in the source
[3] = biological target: T2, soluble CD46 (UniProt P15529 35-343); assay: Western blot, soluble CD46 as probe, anti-CD46 mAb
T2 construct: also called sCD46
T2 sequence: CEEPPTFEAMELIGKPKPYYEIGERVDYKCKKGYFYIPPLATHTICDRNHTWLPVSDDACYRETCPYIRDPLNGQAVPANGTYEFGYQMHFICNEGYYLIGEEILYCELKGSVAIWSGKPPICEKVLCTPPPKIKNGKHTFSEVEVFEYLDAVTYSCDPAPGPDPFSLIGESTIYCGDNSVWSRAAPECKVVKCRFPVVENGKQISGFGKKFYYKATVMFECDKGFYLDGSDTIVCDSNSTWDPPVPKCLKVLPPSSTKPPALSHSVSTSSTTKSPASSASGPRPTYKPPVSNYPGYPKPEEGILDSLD

[4] = biological target: T3, Recombinant human DSG2 protein (Leinco Technologies) (human, UniProt Q14126 50-609); assay: Western blot of the blotted knob probed with soluble hDSG2, anti-DSG2 (6D8), HRP-anti-mouse IgG [upper panel]
T3 construct: also called soluble DSG2; soluble recombinant DSG2
T3 sequence: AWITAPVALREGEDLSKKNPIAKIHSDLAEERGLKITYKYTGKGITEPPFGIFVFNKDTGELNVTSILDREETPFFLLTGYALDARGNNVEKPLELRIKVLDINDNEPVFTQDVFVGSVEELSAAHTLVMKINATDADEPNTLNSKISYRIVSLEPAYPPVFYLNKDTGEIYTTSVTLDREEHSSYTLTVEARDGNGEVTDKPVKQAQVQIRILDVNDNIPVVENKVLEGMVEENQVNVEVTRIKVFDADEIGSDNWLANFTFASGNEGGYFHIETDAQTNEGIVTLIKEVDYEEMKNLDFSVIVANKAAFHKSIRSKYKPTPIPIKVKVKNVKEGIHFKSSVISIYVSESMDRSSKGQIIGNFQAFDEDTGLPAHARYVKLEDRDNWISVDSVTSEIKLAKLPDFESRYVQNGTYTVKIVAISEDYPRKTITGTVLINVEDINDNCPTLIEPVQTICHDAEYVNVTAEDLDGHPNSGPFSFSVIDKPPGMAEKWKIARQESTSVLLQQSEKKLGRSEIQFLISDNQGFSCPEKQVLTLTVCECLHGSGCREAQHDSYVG

[5] = biological target: T3, Recombinant human DSG2 protein (Leinco …); assay: SPR (BIAcore 3000), DSG2 immobilised on CM4 chip, knob injected
[6] = biological target: T3, Recombinant human DSG2 protein (Leinco …); assay: SPR (BIAcore 3000), DSG2 immobilised on the sensor chip, knobs injected at 2.5 to 10 µg/ml, BIAeval
[7] = biological target: T3, Recombinant human DSG2 protein (Leinco …); assay: SPR (BIAcore 3000), DSG2 immobilised, BIAeval; as printed in this row, but kd/ka of the row gives 24.9 nM and paragraph 239 gives 405-fold over wt: the KD cells of Y250F and V239D look interchanged on the sheet
[8] = biological target: T3, Recombinant human DSG2 protein (Leinco …); assay: SPR (BIAcore 3000), DSG2 immobilised, BIAeval; as printed in this row, but kd/ka of the row gives 11.4 nM and paragraph 239 gives 885-fold over wt: the KD cells of Y250F and V239D look interchanged on the sheet
[9] = biological target: T3, Recombinant human DSG2 protein (Leinco …); assay: not given; SPR on immobilised DSG2 by the context (FIG. 7)

B1: JO-1 (self-dimerizing trimeric wild-type Ad3 fiber knob) (designed binder)
chain: MKVSALKEKVSALKEKVSALKEKVSALKEKVSALKEGSGGGSGGGSGGGSNSIALKNNTLWTGPKPEANCIIEYGKQNPDSKLTLILVKNGGIVNGYVTLMGASDYVNTLFKNKNVSINVELYFDATGHILPDSSSLKTDLELKYKQTADFSARGFMPSTTAYPFVLPNAGTHNENYIFGQCYYKASDGALFPLEVTVMLNKRLPDSRTSYVMTFLWSLNAGLAPETTQATLITSPFTFSYIREDD
For B1, the “IC50 (read off the curve), % GFP-positive cells after Ad3-GFP infection of HeLa cells” value [1] was roughly 5 µg/mL and the “IC50 (read off the curve), GFP MFI after Ad3-GFP infection of HeLa cells” value [2] was roughly 0.6 µg/mL.

B2: Ad3-S/Kn (ligand)
chain: NSIALKNNTLWTGPKPEANCIIEYGKQNPDSKLTLILVKNGGIVNGYVTLMGASDYVNTLFKNKNVSINVELYFDATGHILPDSSSLKTDLELKYKQTADFSARGFMPSTTAYPFVLPNAGTHNENYIFGQCYYKASDGALFPLEVTVMLNKRLPDSRTSYVMTFLWSLNAGLAPETTQATLITSPFTFSYIREDD
notes: also called wild-type Ad3 fibers
B2: no binding [3]; no binding [4].

B3: Ad3 fiber knob mutant V239D without dimerization domain (ligand)
chain: NKLCSKLGNGLTFDSSNSIALKNNTLWTGPKPEANCIIEYGKQNPDSKLTLILVKNGGIVNGYVTLMGASDYVNTLFKNKNVSINVELYFDATGHILPDSSSLKTDLELKYKQTADFSARGFMPSTTAYPFDLPNAGTHNENYIFGQCYYKASDGALFPLEVTVMLNKRLPDSRTSYVMTFLWSLNAGLAPETTQATLITSPFTFSYIREDD
notes: range 108-319; also called V239D/noDD; not shown: N-terminal 6-His tag of pQE30 and linker
For B3, the “fold higher affinity than wt Ad3knob/noDD” value [5] was 405 fold, the koff [6] was 0.00266 s⁻¹ and the kon [6] was 107000 M⁻¹ s⁻¹. The Kd [7] was 11.4 nM.

B4: Ad3 fiber knob mutant Y250F without dimerization domain (ligand)
chain: NKLCSKLGNGLTFDSSNSIALKNNTLWTGPKPEANCIIEYGKQNPDSKLTLILVKNGGIVNGYVTLMGASDYVNTLFKNKNVSINVELYFDATGHILPDSSSLKTDLELKYKQTADFSARGFMPSTTAYPFVLPNAGTHNENFIFGQCYYKASDGALFPLEVTVMLNKRLPDSRTSYVMTFLWSLNAGLAPETTQATLITSPFTFSYIREDD
notes: range 108-319; also called Y250F/noDD; not shown: N-terminal 6-His tag of pQE30 and linker
In the case of B4, the “fold higher affinity than wt Ad3knob/noDD” value [5] is reported as 885 fold, the koff [6] is reported as 0.00264 s⁻¹ and the kon [6] is reported as 232000 M⁻¹ s⁻¹. The Kd [8] was 24.9 nM.

B5: JO-4 (affinity-enhanced version of JO-1) (designed binder)
chain: MRGSHHHHHHGSKVSALKEKVSALKEKVSALKEKVSALKEKVSALKEGSGGGSGGGSGGGSNSIALKNNTLWTGPKPEANCIIEYGKQNPDSKLTLILVKNGGIVNGYVTLMGASDYVNTLFKNKNVSINVELYFDATGHILPDSSSLKTDLELKYKQTADFSARGFMPSTTAYPFVLPNAGTHNENFIFGQCYYKASDGALFPLEVTVMLNKRLPDSRTSYVMTFLWSLNAGLAPETTQATLITSPFTFSYIREDD
B5 was tested, and the Kd [9] was 11.4 nM.
